Reference: patent US20240400614A1, “CLEAVABLE PEPTIDES AND METHODS OF USE THEREOF” (Bright Peak Therapeutics AG, priority 2023, published 2024)
Square brackets hold non-standard residues; d marks the D form. Ends that are not written are not given here. Tyr(3-NO2) = N[C@@H](Cc1ccc(O)c([N+](=O)[O-])c1)C(=O)O; 2Abz = Nc1ccccc1C(=O)O

Tests used:
Assay type in all cases: biochemical
[1] = target: T1, MMP-7 (Homo sapiens, UniProt P09237); experiment: FRET peptide cleavage efficiency with MMP-7 (standard pH 7.5; also pH 6.5); conditions: for % cleavage MMP-7 t = 15 min: t = 15 min (Table 9); for % cleavage MMP-7 t = 60 min: t = 60 min (Table 9); for % cleavage MMP-7 t = 120 min: t = 120 min (Table 9)
T1 construct: purchased SIGMA CC1059
T1 sequence (P09237 95-267): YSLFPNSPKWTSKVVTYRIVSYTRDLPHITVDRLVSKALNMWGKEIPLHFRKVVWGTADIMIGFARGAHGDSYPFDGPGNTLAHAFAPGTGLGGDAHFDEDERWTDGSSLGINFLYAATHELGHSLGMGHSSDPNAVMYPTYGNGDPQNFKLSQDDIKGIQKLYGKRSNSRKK

[2] = target: T2, MMP-9 (Homo sapiens, UniProt P14780); experiment: FRET peptide cleavage efficiency with MMP-9 (standard pH 7.5; also pH 6.5); conditions: for % cleavage MMP-9 t = 15 min: t = 15 min (Table 9); for % cleavage MMP-9 t = 60 min: t = 60 min (Table 9); for % cleavage MMP-9 t = 120 min: t = 120 min (Table 9)
T2 construct: purchased SIGMA PF024

[3] = target: T3, MMP-2 (Homo sapiens, UniProt P08253); experiment: FRET peptide cleavage efficiency with MMP-2
T3 construct: purchased SIGMA PF023
T3 sequence (P08253 110-660): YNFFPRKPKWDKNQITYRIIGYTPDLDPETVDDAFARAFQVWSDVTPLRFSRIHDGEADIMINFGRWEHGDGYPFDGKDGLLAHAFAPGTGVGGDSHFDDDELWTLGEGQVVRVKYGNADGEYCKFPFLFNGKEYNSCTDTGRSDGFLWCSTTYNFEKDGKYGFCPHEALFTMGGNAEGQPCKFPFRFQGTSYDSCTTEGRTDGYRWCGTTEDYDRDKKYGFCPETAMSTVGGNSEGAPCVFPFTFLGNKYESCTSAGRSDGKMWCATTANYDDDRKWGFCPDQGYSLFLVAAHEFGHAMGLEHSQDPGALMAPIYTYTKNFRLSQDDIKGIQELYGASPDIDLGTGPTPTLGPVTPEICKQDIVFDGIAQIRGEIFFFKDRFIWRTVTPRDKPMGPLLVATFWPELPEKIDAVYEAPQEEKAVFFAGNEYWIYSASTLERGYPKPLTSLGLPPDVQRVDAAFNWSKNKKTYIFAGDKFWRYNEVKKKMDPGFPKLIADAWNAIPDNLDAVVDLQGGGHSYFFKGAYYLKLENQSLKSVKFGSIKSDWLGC

[4] = target: uPA (Homo sapiens, UniProt P00749); experiment: FRET peptide cleavage efficiency with uPA
[5] = target: T4, matriptase (Homo sapiens, UniProt Q9Y5Y6); experiment: FRET peptide cleavage efficiency with matriptase
T4 construct: purchased R&D Systems 3946-SEB
T4 sequence (Q9Y5Y6 615-855 limits assumed): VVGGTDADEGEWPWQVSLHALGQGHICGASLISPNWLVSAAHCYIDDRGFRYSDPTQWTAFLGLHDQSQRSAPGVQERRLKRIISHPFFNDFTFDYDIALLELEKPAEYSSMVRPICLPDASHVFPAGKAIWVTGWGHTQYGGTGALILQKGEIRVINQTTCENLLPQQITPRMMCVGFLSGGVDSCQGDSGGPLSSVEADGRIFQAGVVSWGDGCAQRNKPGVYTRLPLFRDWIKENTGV

[6] = t = 15 min, 200 uM linker, 1 ug/ml protease, 37° C., buffer C pH 7.5
[7] = t = 60 min, 200 uM linker, 1 ug/ml protease, 37° C., buffer C pH 7.5
[8] = t = 120 min, 200 uM linker, 1 ug/ml protease, 37° C., buffer C pH 7.5
[9] = 200 uM linker, 1 ug/ml protease, 37° C., buffer A pH 8.5
[10] = t = 60 min, 200 uM linker, 1 ug/ml protease, 37° C., buffer A pH 8.5
[11] = t = 120 min, 200 uM linker, 1 ug/ml protease, 37° C., buffer A pH 8.5
[12] = t = 15 min, 200 uM linker, 1 ug/ml protease, 37° C., buffer B pH 9.0
[13] = t = 60 min, 200 uM linker, 1 ug/ml protease, 37° C., buffer B pH 9.0
[14] = 200 uM linker, 1 ug/ml protease, 37° C., buffer B pH 9.0

T2 sequence (P14780 94-707): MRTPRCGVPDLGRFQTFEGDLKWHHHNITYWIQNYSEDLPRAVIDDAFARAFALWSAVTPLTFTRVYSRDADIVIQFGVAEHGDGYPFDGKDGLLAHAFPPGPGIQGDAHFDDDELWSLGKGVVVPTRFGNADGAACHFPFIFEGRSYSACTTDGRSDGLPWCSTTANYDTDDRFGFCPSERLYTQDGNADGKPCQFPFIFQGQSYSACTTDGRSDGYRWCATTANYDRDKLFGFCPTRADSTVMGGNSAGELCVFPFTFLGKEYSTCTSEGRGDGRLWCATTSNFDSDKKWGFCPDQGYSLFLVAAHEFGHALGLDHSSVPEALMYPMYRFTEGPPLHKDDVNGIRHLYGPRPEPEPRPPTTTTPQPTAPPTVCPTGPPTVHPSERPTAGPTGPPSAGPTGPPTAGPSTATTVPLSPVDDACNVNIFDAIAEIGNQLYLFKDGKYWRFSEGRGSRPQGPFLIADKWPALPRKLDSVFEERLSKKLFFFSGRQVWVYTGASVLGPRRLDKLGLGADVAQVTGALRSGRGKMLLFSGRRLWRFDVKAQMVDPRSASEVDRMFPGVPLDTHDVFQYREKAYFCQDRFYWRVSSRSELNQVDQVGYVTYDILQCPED

Row | % cleavage MMP-7 t = 15 min [1] [%] | % cleavage MMP-7 t = 60 min [1] [%] | % cleavage MMP-7 t = 120 min [1] [%] | % cleavage MMP-9 t = 15 min [2] [%] | % cleavage MMP-9 t = 60 min [2] [%] | % cleavage MMP-9 t = 120 min [2] [%] | % cleavage MMP-2 t = 15 min ([3]; t = 15 min (Table 9)) [%] | % cleavage MMP-2 t = 15 min [3, 6] [%] | % cleavage MMP-2 t = 60 min ([3]; t = 60 min (Table 9)) [%] | % cleavage MMP-2 t = 60 min [3, 7] [%] | % cleavage MMP-2 t = 120 min ([3]; t = 120 min (Table 9)) [%] | % cleavage MMP-2 t = 120 min [3, 8] [%] | % cleavage uPA t = 15 min [4, 9] [%] | % cleavage uPA t = 60 min [4, 10] [%] | % cleavage uPA t = 120 min [4, 11] [%] | % cleavage Matriptase t = 15 min [5, 12] [%] | % cleavage Matriptase t = 60 min [5, 13] [%] | % cleavage Matriptase t = 120 min [5, 14] [%] | % cleavage MMP-2 t = 15 min ([3]; pH 6.5, t = 15 min (Table 7)) [%] | % cleavage MMP-2 t = 60 min ([3]; pH 6.5, t = 60 min (Table 7)) [%] | Sequence | also measured
1 | 0 | 0 | 0 | 32 | 100 | 100 | 75 | 75 | 100 | 100 | 100 | 100 | 0 | 0 | 0 | 0 | 0 | 0 |  |  | SGRPLGYFGKL ([2Abz]SGRPLGYFGKL[Tyr(3-NO2)]-NH2) [LNK056] | 
2 | 11 | 43 | 70 | 10 | 43 | 67 | 72 | 85 | 100 | 99 | 100 | 99 | 2 | 6 | 12 | 22 | 70 | 92 | 84 | 100 | SGRVAGLVG ([2Abz]SGRVAGLVG[Tyr(3-NO2)]-NH2) [LNK016] | % cleavage MMP-2 t = 15 min ([3]; pH 7.5, t = 15 min (Table 7)): 87%; % cleavage MMP-2 t = 60 min ([3]; pH 7.5, t = 60 min (Table 7)): 100%; % cleavage uPA t = 60 min ([4]; pH 6.5, t = 60 min (Table 7)): 0%; % cleavage uPA t = 120 min ([4]; pH 6.5, t = 120 min (Table 7)): 0%; % cleavage uPA t = 60 min ([4]; pH 7.5, t = 60 min (Table 7)): 4%; % cleavage uPA t = 120 min ([4]; pH 7.5, t = 120 min (Table 7)): 10%; % cleavage Matriptase t = 15 min ([5]; pH 6.5, t = 15 min (Table 7)): 8%; % cleavage Matriptase t = 60 min ([5]; pH 6.5, t = 60 min (Table 7)): 24%; % cleavage Matriptase t = 15 min ([5]; pH 7.5, t = 15 min (Table 7)): 17%; % cleavage Matriptase t = 60 min ([5]; pH 7.5, t = 60 min (Table 7)): 54%
3 | 62 | 96 | 100 | 43 | 94 | 100 | 89 | 90 | 97 | 99 | 100 | 99 | 1 | 6 | 12 | 29 | 81 | 96 | 93 | 100 | SGRVANLVG (not fully specified (N-terminus, C-terminus)) [LNK017] | % cleavage MMP-2 t = 15 min ([3]; pH 7.5, t = 15 min (Table 7)): 37%; % cleavage MMP-2 t = 60 min ([3]; pH 7.5, t = 60 min (Table 7)): 100%; % cleavage uPA t = 60 min ([4]; pH 6.5, t = 60 min (Table 7)): 0%; % cleavage uPA t = 120 min ([4]; pH 6.5, t = 120 min (Table 7)): 0%; % cleavage uPA t = 60 min ([4]; pH 7.5, t = 60 min (Table 7)): 7%; % cleavage uPA t = 120 min ([4]; pH 7.5, t = 120 min (Table 7)): 13%; % cleavage Matriptase t = 15 min ([5]; pH 6.5, t = 15 min (Table 7)): 5%; % cleavage Matriptase t = 60 min ([5]; pH 6.5, t = 60 min (Table 7)): 26%; % cleavage Matriptase t = 15 min ([5]; pH 7.5, t = 15 min (Table 7)): 25%; % cleavage Matriptase t = 60 min ([5]; pH 7.5, t = 60 min (Table 7)): 68%
